Laboratory results from article PMC10524804.

Test system: CpxR-R195H (Klebsiella pneumoniae HS11286 (ST11)?)
Assay: ITC
Conditions: EMSA: Beyotime binding buffer (poly(dI-dC), DTT, glycerol, EDTA, NaCl, MgCl2, Tris), room temp, 2 pmol probe; footprinting: 50 mM Tris-HCl pH 8.0, 100 mM KCl …

Substance: PblaKPC (Tn1721, ST11), unlabeled
- binding signal (fold lower affinity than wild type): 100
